± gives the uncertainty stated by the source.
B1: Peripheral plasma membrane protein CASK, residues 488 to 569; numbered along this chain, O14936 (parent)
chain: VRLVQFQKNTDEPMGITLKMNELNHCIVARIMHGGMIHRQGTLHVGDEIREINGISVANQTVEQLQKMLREMRGSITFKIVP

Variants of: B1
Test: abundance fitness (aPCA) (normalised: wild type 0, dead -1); higher = more abundant; growth selection in yeast, the domain comes from the species named
Conditions: Homo sapiens

Q: For VRLVQFQKNTDEPMGITLKMNELNHCIVARIMHGGMIHRQGTLHVGDEIREINGTSVANQTVEQLQKMLREMRGSITFKIVP, which abundance fitness is on record?
A: -0.003 ± 0.028

Q: For VRLVQFQKNTDEPMGITLKMNELNHCIVARIMHGGMIHRQGTLHVGDEIREINGYSVANQTVEQLQKMLREMRGSITFKIVP, which abundance fitness is on record?
A: -0.061 ± 0.053

Q: Which abundance fitness does the source give for YRLVQFQKNTDEPMGITLKMNELNHCIVARIMHGGMIHRQGTLHVGDEIREINGISVANQTVEQLQKMLREMRGSITFKIVP here?
A: 0.017 ± 0.059

Q: Which abundance fitness does the source give for VRLVQFQKWTDEPMGITLKMNELNHCIVARIMHGGMIHRQGTLHVGDEIREINGISVANQTVEQLQKMLREMRGSITFKIVP here?
A: -0.081 ± 0.025

Q: With VRLVQFQKITDEPMGITLKMNELNHCIVARIMHGGMIHRQGTLHVGDEIREINGISVANQTVEQLQKMLREMRGSITFKIVP as the variant, how does the abundance fitness read?
A: -0.015 ± 0.042

Q: With VRLVQFQKNTDEPMGITLKMNELNHCIVARIMHGGMIHRQGTLHVGDCIREINGISVANQTVEQLQKMLREMRGSITFKIVP as the variant, how does the abundance fitness read?
A: -0.017 ± 0.045

Q: Which abundance fitness does the source give for VRLVQFQKNTDEPMGITLKMNELNHCIVARIMHGGGIHRQGTLHVGDEIREINGISVANQTVEQLQKMLREMRGSITFKIVP here?
A: -0.05 ± 0.029

Q: For VRLVQFQKNTDEPMGITLKMNELNHCIVARIMHGGMIHRQGTLHVGDEIREINGISVANQSVEQLQKMLREMRGSITFKIVP, which abundance fitness is on record?
A: -0.029 ± 0.025

Q: With VRLVQFQKNTDEPMGITLKMNELNHCIVARIMHGGMIHRQGTLHVGDEIREINGISVANQTVEQHQKMLREMRGSITFKIVP as the variant, how does the abundance fitness read?
A: -0.402 ± 0.067

Q: Which abundance fitness does the source give for VRLVQFQKNTDEPMGITLKMNELNACIVARIMHGGMIHRQGTLHVGDEIREINGISVANQTVEQLQKMLREMRGSITFKIVP here?
A: -0.016 ± 0.024

Q: With VRLVQFQKNTDEPMGITLKMNELNHCIVARIMHGGMIHRQGTLHVGDEIREINGISVANQTVEQLQKMLREMRGSITFKIVI as the variant, how does the abundance fitness read?
A: -0.237 ± 0.27

Q: For VRLVQFQKNTDEPMGITLKMNELNHCIVARIMHGGMIHRQGTLHVGDEIREINGISVANQTVEQLQKMLREMRGSITFKIVW, which abundance fitness is on record?
A: -0.359 ± 0.091

Q: Which abundance fitness does the source give for VRLVQFQKNTDEPMGITLKMNELNHCIVAREMHGGMIHRQGTLHVGDEIREINGISVANQTVEQLQKMLREMRGSITFKIVP here?
A: -0.777 ± 0.078

Q: For VRLVQIQKNTDEPMGITLKMNELNHCIVARIMHGGMIHRQGTLHVGDEIREINGISVANQTVEQLQKMLREMRGSITFKIVP, which abundance fitness is on record?
A: -0.028 ± 0.04

Q: With VRLVQFQKNTDEPMGITLKMNELNHCIVARIMHGGMIHRQGTLHVGDEIREINGISVANQTVEQLQKMLREMRKSITFKIVP as the variant, how does the abundance fitness read?
A: -0.399 ± 0.042

Q: Which abundance fitness does the source give for VRLVQFQKNTDEPMGITLKMNELNHCIVARIMHGGMIHRQGTLHVGDEIREINGISVANQTVEQLQKMLREMRRSITFKIVP here?
A: -0.467 ± 0.027

Q: With VRLVQFQKNTDEPMGITLKMNELNHCIVAVIMHGGMIHRQGTLHVGDEIREINGISVANQTVEQLQKMLREMRGSITFKIVP as the variant, how does the abundance fitness read?
A: -0.163 ± 0.032

Q: Which abundance fitness does the source give for VRLVQFQKNTDEPMGITLKMNELNHCIVAAIMHGGMIHRQGTLHVGDEIREINGISVANQTVEQLQKMLREMRGSITFKIVP here?
A: 0.008 ± 0.034

Q: Which abundance fitness does the source give for VRLVQFQKNTDNPMGITLKMNELNHCIVARIMHGGMIHRQGTLHVGDEIREINGISVANQTVEQLQKMLREMRGSITFKIVP here?
A: -0.277 ± 0.066

Q: With VRLVQFQKNTDEPMHITLKMNELNHCIVARIMHGGMIHRQGTLHVGDEIREINGISVANQTVEQLQKMLREMRGSITFKIVP as the variant, how does the abundance fitness read?
A: -0.549 ± 0.057

Q: Which abundance fitness does the source give for VRLVQFQKNTDEPMGITLKMNELNHCIVARIMHGGMIHRQGTLHVGDEIREINGISVANQTVEQLQKMLREMKGSITFKIVP here?
A: 0.007 ± 0.033

Q: For VRLVQFQKNTDEPMGITLKMNELNHCIVARIMHGGMIHRQGTLCVGDEIREINGISVANQTVEQLQKMLREMRGSITFKIVP, which abundance fitness is on record?
A: -0.012 ± 0.033

Q: With VRYVQFQKNTDEPMGITLKMNELNHCIVARIMHGGMIHRQGTLHVGDEIREINGISVANQTVEQLQKMLREMRGSITFKIVP as the variant, how does the abundance fitness read?
A: -0.015 ± 0.043

Q: Which abundance fitness does the source give for VRLVQFQKNTDEPMGITLKMNELNHCIVARIMHGGMIHRQGTLHVGDEIRFINGISVANQTVEQLQKMLREMRGSITFKIVP here?
A: -0.441 ± 0.23

Q: For VRLVQFQKNTDEPMGITLKMNEYNHCIVARIMHGGMIHRQGTLHVGDEIREINGISVANQTVEQLQKMLREMRGSITFKIVP, which abundance fitness is on record?
A: 0.128 ± 0.043

Q: With VRLVQFQKNTDEPMGITLKMNELNHCIVARIMHGGMIHRQGTLHVGDEIREINGISVANQTVEQLQKMLREMRGLITFKIVP as the variant, how does the abundance fitness read?
A: 0.034 ± 0.03

Q: Which abundance fitness does the source give for VRLVQFQKNTDEPMGITLKMNELNHCIVARIMHGGMIHRQGTLHVGDEIREINGISVANQTVEQLQKMLREMRGQITFKIVP here?
A: 0.019 ± 0.034

Q: With VRLVQFQKNTDEPMGITLKMNELNHCIVARIMHGGMIHRQGTLHVGDEIREINGISVANQTVEQLQKMLREMRGPITFKIVP as the variant, how does the abundance fitness read?
A: -0.005 ± 0.048

Q: Which abundance fitness does the source give for VRLVQFQKNTDEPMGITLKMNELNHCIVARIMHGGMIDRQGTLHVGDEIREINGISVANQTVEQLQKMLREMRGSITFKIVP here?
A: -0.043 ± 0.035

Q: For VRLVQFQKNTDEPMGITLKMNELNHCIVARIMHGGMIHRQGTLHKGDEIREINGISVANQTVEQLQKMLREMRGSITFKIVP, which abundance fitness is on record?
A: -0.207 ± 0.083

Q: For VRLVQFQKNTDEPMGITLKMNELNHCIVARIMHGGMIHRQGTLHYGDEIREINGISVANQTVEQLQKMLREMRGSITFKIVP, which abundance fitness is on record?
A: -0.665 ± 0.35

Q: Which abundance fitness does the source give for VRLVQFQKNTDEPMGITLKMNELNHCIVARIMHGGMIHRQGTLHVGDEIREINGISVANQTVEQLQKMLYEMRGSITFKIVP here?
A: -0.039 ± 0.049

Q: Which abundance fitness does the source give for VRLVQFQKNTDEPMGITLKMNELNHCIVARIMHGGMIHRQCTLHVGDEIREINGISVANQTVEQLQKMLREMRGSITFKIVP here?
A: -0.137 ± 0.031
